Experimental data as given in the supplement of paper PMC12042874.
± gives the uncertainty stated by the source.

Assay: amyloid nucleation score (Sup35N fusion, yeast selection) (log enrichment); library NNK2; higher = more nucleation; inactive = no reads after selection
Summary of the method: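 Using DiMSum, nucleation scores were taken as the log enrichment of output over input reads, centred on the mode score of non-aggregating sequences. The input and output reads came from Illumina sequencing of plasmid inserts, with sequences under 100 input reads excluded. The yeast were psi-negative, expressed Sup35N fused to peptides of 20 random codons, were induced with 100 μM copper sulfate for 24 hours, and were grown 7 days at 30°C on medium lacking adenine and uracil.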

Point of comparison: LFKPLRNR, amyloid nucleation score -0.918 ± 0.33. Against it:
- YHLKYRGSMGVPCLNTFVWN — higher, 5.15 ± 0.055
- CHPLEMWFFFSLGGFGVSMT — within error, -1.54 ± 1.1
- ICRNGLSL — higher, 0.098 ± 0.26
- TASKILSGIASYDSRIIQPE — within error, -0.447 ± 0.23
- NNMINDGNSMV — higher, 0.026 ± 0.39
- RIKCRTLLGQFLMAVVIEMY — higher, 0.309 ± 0.31
- WASIQVDRSLGCNIFWLLQ — higher, 3.73 ± 0.11
- RMCWELFT — higher, 0.022 ± 0.34
- EHHYI — within error, -0.202 ± 1
- SYVIGGGSMGQARDRCLSNA — higher, 1.11 ± 0.23
- TRMNSVYKVEIRRLVKMVSW — higher, 0.242 ± 0.21
- TEIKSCKDNTHVHMHSLIRA — higher, 0.384 ± 0.43
- ARDRNSFGLDCAVFMSYFTT — higher, 3.34 ± 0.11
- VTRTDVKPKVVGRRRARLCL — higher, 0.705 ± 0.44
- GLESFGDYSVKIPLGDLFGP — higher, -0.025 ± 0.3
- VKFAGWTCSL — within error, -0.314 ± 0.62
- RCKCNAIEVT — higher, 0.565 ± 0.2
- VFRISLRSSLYML — higher, 4.13 ± 0.099
- CKIEGWCTGCGSRQLRARAE — higher, 1.09 ± 0.34
- LVSMAIECHLLYLLE — higher, 0.931 ± 0.47
- DNRNCPAHWWASFTMKPGSE — higher, 0.14 ± 0.49
- NNVANW — higher, 0.569 ± 0.48
- AMNVDIN — within error, -0.641 ± 0.24
- WMIIVA — higher, 0.582 ± 0.54
- NETLSTCCLYHFKG — higher, 4.04 ± 0.046
- VTVKYRVVTDVLRTMRNDSV — higher, 0.297 ± 0.34
- WDCAWVLGLVAEGRLT — higher, 6.09 ± 0.039
- DVIYNERTYLLFLTPHTMVV — within error, -0.991 ± 0.63
- VWVRMRKAVGAVHYRDLRSS — higher, 8.893 ± 0.075
- CGLVLVIRVYITSLYNSRFM — higher, 1.49 ± 0.14
- RFNCHFIWNIRPEFRMNNDK — higher, 5.61 ± 0.057
- NFHGDAYLESVRWIHIRNKR — within error, -0.735 ± 0.48
- CYCDSWIMAS — within error, -1.69 ± 0.55
- MFVHLGGTWMQR — higher, 5.135 ± 0.046
- LWDMIRNGC — within error, -0.769 ± 0.45
- EVNRAPNVSIVYRRNSGTAD — higher, -0.154 ± 0.4
- GRYNVDFKSIMRYIECGKTA — within error, -0.27 ± 1.1
- WGFIAVDGRPIVASLRYSMR — higher, 3.51 ± 0.084
- YEVGHPYFDDNCRICSFWWK — higher, 1.82 ± 0.12
- YMCKVSPLRILSF — higher, 2.66 ± 0.056
- VIFVRYWGVDYHLADLVIN — within error, -0.563 ± 0.55
- GIRAVVL — higher, 0.374 ± 0.18
- TLLIMCGSISHSFPSECHWL — higher, 0.716 ± 0.15
- CSYWNVGYREVRMTDDDTMG — within error, -0.975 ± 0.53
- RTSRVKVR — higher, 4.13 ± 0.074
- KYFVTNRVVWTDRVSIFGV — higher, 1.07 ± 0.53
- VMCTC — higher, 0.71 ± 0.48
- SVFSYQYETKVGSQNLLEYI — within error, -0.751 ± 1.1
- VTVRSFTNIRSTFKLDSPLL — higher, 0.122 ± 0.29
- TITMFHYLRSLSGNSDYGLG — higher, 2.31 ± 0.1
- YQDWGSSTLLIVIKSWAGET — within error, -1.02 ± 0.33
- LAMEWSRCRTGPL — higher, 1.68 ± 0.15
- STFFKLD — within error, -1.88 ± 1.1
- CLYCVMASQWGCFGLVESVT — higher, 1.73 ± 0.47
- YGIHTFSRYGVIWSCVSV — within error, -0.64 ± 0.49
- LEWLFA — within error, 0.155 ± 1.1
- WVDGICCPPRSG — higher, 0.292 ± 0.29
- VLNGNLSFLSAVWFGKM — higher, 6.729 ± 0.053
- RWTWNSEVRNLRIFASYPGC — within error, -0.418 ± 1.1
- TLNMNVSFPIRRAHIYEMLI — higher, 0.83 ± 0.48
- QHLFFIYSCYTKLGGTLAGE — higher, 0.746 ± 0.2
- PNIIGKLGNLNSLVLC — higher, 0.382 ± 0.8
- FTRSWFLYTT — higher, 3.85 ± 0.095
- CFGIILVQGYMHA — higher, 3.6 ± 0.052
- KSTGDCFLKMINYYCGWS — higher, 6.066 ± 0.052
- FWLVL — within error, -1.47 ± 0.73
- SACLFLDME — higher, 0.664 ± 0.41
- GYPSARIKSDMYWNPMNVPT — higher, -0.114 ± 0.37
- YNILVK — within error, -0.622 ± 0.43
- FFSDVSLVQYHLTLRFLMAY — within error, -1.69 ± 0.62
- KAGVKLSLGNCRYSTL — higher, 0.527 ± 0.8
- PVLFYSLYIVNVNTLYMSSG — higher, 7.857 ± 0.051
- LYINGEISVVIRIWFGPLVV — higher, 0.517 ± 0.53
- IMASLRMKDANCLSCTCYNR — higher, 6.798 ± 0.027
- QSLSSYHLNFSALRSVPWP — higher, 0.043 ± 0.38
- PWPYIWSRCSQTDTVSCEHS — higher, -0.212 ± 0.33
- HFWCLRCDTIHDSFNYSVVQ — higher, 7.373 ± 0.055

With MDGIGTFNLSENR the amyloid nucleation score was “inactive”.
For VFSLCGIYMRGHYSYWCYNK, the amyloid nucleation score was “inactive”.
In the case of HLGVGFLWSVRFIYMTFGFS, the amyloid nucleation score is reported as “inactive”.
For TFGLWPPQGMAIRGMRVNMN, the amyloid nucleation score was “inactive”.
For TVLPAVCYGVLNSRFRVTME, the amyloid nucleation score was “inactive”.
With VGFSLLNKTLCFGDRCTNIS the amyloid nucleation score was “inactive”.
For TLAEFGQQPGRGACMYAVNN, the amyloid nucleation score was “inactive”.
With ASGVFSLAEYNFFGISKKSF the amyloid nucleation score was “inactive”.
In the case of GYYGARFLVFKFMVRRWMMT, the amyloid nucleation score is reported as “inactive”.
